Measured values: US9925134B2, “Use of substances to protect FGF-2 or FGF-beta growth factor” (BASF Beauty Care Solutions France SAS, priority 2007, dated 2018)

Experiments:
FGF-2 = FGF-2 (Homo sapiens, UniProt P09038); test: Study of thermal degradation (stability) of FGF-2 at various temperatures with or without heparin, ELISA; assay type: physicochemical; conditions: without heparin
Description: A 5 ng/ml solution of FGF-2 in a 10 mM PBS buffer with 0.1% BSA and 0.1% of methylparaben is prepared.
This solution is placed at various temperatures: 4° C., 20° C., 37° C., 50° C., and 80° C. either in the presence of heparin or not at 500 μg/ml.
Dosages of FGF-2 with a commercial ELISA kit (R&D system, France) are performed at different times (T=0, 3 hrs, 24 hrs and 48 hrs) so as to establish degradation kinetics for each temperature of investigation.
The results are expressed as a percentage of FGF-2 relative to time T=0. The experiments are conducted in triplicates (n=3). The obtained results are illustrated in FIGS. 1 and 2.

[1] = 37° C.; neutral pH; cited from earlier work
cathepsin G = molecular target: T1, cathepsin G (Homo sapiens, UniProt P08311); test: Degradation kinetics of FGF-2 by cathepsin G; assay type: biochemical; conditions: for FGF-2 concentration in the presence of cathepsin G / FGF-2 concentration Temperature control: 37° C.; for FGF-2 concentration in the presence of cathepsin G: cathepsin G 0.02 U per well; for FGF-2 concentration Temperature control: enzyme-free; for Degradation % in the presence of cathepsin G: relative to temperature control
T1 sequence (P08311 21-244): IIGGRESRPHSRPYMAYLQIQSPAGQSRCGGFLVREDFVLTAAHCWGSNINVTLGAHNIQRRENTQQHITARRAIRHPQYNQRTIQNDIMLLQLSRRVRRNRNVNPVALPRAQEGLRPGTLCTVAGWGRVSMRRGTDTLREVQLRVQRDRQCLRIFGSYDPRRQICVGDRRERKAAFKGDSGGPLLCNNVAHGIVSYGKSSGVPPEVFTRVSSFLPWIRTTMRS
Description: For this reason, a study of the degradation of FGF-2 by cathepsin G was conducted. Degradation kinetics was carried out in a 100 mM Hepes buffer, pH7 containing 0.1% BSA. Cathepsin G was added into the wells of the plate at a concentration of 0.02 U per well to a 2 ng/well FGF-2 solution. The plate was incubated at 37° C. and sampling was performed at 15, 30, 60, 90 and 120 minutes in order to dose the remaining FGF-2.
The control (100%) is made by extemporaneous dosage of FGF-2. At the same time, an enzyme-free control solution is placed at 37° C. in order to study thermal degradation at the different times, so as to get rid of this degradation due to temperature and to quantify the portion only due to enzymatic degradation.

[2] = test system: normal human dermal fibroblasts; test: Fibroblast proliferation by FGF-2 protected by heparin or extract 5c (PNPP); assay type: cell-based; conditions: for Proliferation (expressed as percent relative to the non-treated well): 48 hrs, heparin 0.01% during 24 hrs at 37° C.
Description: A solution of FGF-2 is prepared extemporaneously (=non-degraded FGF-2); a solution of FGF-2 is placed for 24 hrse at 37° C. in the absence (=degraded FGF-2) and in the presence of heparin (=FGF-2+heparin at 37° C.) at 0.01%.
Each FGF-2 solution is diluted so as to be applied on the cells, the final FGF-2 concentrations being the following: 0.1, 0.25, 0.5, 0.75 and 1 ng/ml.
Normal human dermal fibroblasts were sown at low density in 6-well plates. They were then grown in a medium in the absence (control) or in the presence of FGF-2 at various concentrations.
After 48 hrs, the activity of intracellular acid phosphatases (PNPP) is dosed, so as to be able to evaluate the effect of FGF-2 solutions, either treated or not, on cell proliferation.
The results are expressed as a proliferation percentage relative to the control well i.e. to the non-treated well.
The same experiment was conducted by replacing heparin with extract 5c. The FGF-2 solution put into the presence of 0.5% of extract 5c is placed for 24 hrs at 37° C. The solution is then diluted so as to apply 0.5 ng/ml of FGF-2 in the wells containing the fibroblasts.
The 5c extract concentration finally applied on the cells is 0.0025%. It was checked beforehand that this 5c extract concentration was not capable of inducing stimulation of the proliferation of fibroblasts. This means that the observed stimulation of proliferation is actually due to the protection of FGF-2 by extract 5c (see Table 8).

Chain of FGF-2 (P09038 143-288): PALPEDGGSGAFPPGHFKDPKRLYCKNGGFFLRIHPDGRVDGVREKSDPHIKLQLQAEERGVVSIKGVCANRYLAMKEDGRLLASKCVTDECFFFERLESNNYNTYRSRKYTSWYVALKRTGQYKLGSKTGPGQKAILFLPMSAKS

## FGF-2: Fibroblast Growth Factor; non-degraded = solution of FGF-2 prepared extemporaneously
FGF-2; 4° C., 48 hrs
  FGF-2 degraded (percentage relative to T=0): 20%
FGF-2; 37° C., 3 hrs
  FGF-2 degradation (percentage relative to T=0): 65%
FGF-2; 37° C., 24 hrs
  FGF-2 degraded (percentage relative to T=0): 80%
FGF-2; 50° C., 3 hrs
  FGF-2 degradation (percentage relative to T=0): 80%
FGF-2; 80° C., 3 hrs
  FGF-2 degradation (in words): total degradation
[1]
  half-life time of FGF-2 in vitro: about 24 hours
Cathepsin G; 0 minutes
  FGF-2 concentration in the presence of cathepsin G: 339.05 ± 7.43 pg/mL
  FGF-2 concentration Temperature control: 391.8 ± 3.64 pg/mL
  Degradation % in the presence of cathepsin G: 13.29%
Cathepsin G; 15 minutes
  FGF-2 concentration in the presence of cathepsin G: 295.61 ± 8.49 pg/mL
  FGF-2 concentration Temperature control: 324.99 ± 1.7 pg/mL
  Degradation % in the presence of cathepsin G: 8.95%
Cathepsin G; 30 minutes
  FGF-2 concentration in the presence of cathepsin G: 248.04 ± 1.97 pg/mL
  FGF-2 concentration Temperature control: 291.83 ± 2.4 pg/mL
  Degradation % in the presence of cathepsin G: 14.77%
Cathepsin G; 60 minutes
  FGF-2 concentration in the presence of cathepsin G: 203.67 ± 1.13 pg/mL
  FGF-2 concentration Temperature control: 280.64 ± 3.23 pg/mL
  Degradation % in the presence of cathepsin G: 27.5%
Cathepsin G; 90 minutes
  FGF-2 concentration in the presence of cathepsin G: 141.94 ± 5.14 pg/mL
  FGF-2 concentration Temperature control: 259.81 ± 4.9 pg/mL
  Degradation % in the presence of cathepsin G: 45.55%
Cathepsin G; 120 minutes
  FGF-2 concentration in the presence of cathepsin G: 131.36 ± 2.49 pg/mL
  FGF-2 concentration Temperature control: 241.67 ± 1.97 pg/mL
  Degradation % in the presence of cathepsin G: 45.6%
[2]; FGF-2 0.5 ng/ml, 0.5% 5c extract during 24 hrs at 37° C. (0.0025% on the cells)
  Proliferation (as a percentage) of fibroblasts relative to the non-treated control: 148.5% ± 0.007
[2]; FGF-2 concentration 0.1 ng/ml
  Proliferation (expressed as percent relative to the non-treated well): 116.7 ± 0.012%
[2]; FGF-2 concentration 0.25 ng/ml
  Proliferation (expressed as percent relative to the non-treated well): 138.7 ± 0.005%
[2]; FGF-2 concentration 0.5 ng/ml
  Proliferation (expressed as percent relative to the non-treated well): 148.5 ± 0.007%
[2]; FGF-2 concentration 0.75 ng/ml
  Proliferation (expressed as percent relative to the non-treated well): 163.2 ± 0.005%
[2]; FGF-2 concentration 1 ng/ml
  Proliferation (expressed as percent relative to the non-treated well): 160 ± 0.003%
